Measurements published in the supplement of paper PMC12042874.
± gives the uncertainty stated by the source.

experiment: amyloid nucleation score (Sup35N fusion, yeast selection) (log enrichment); library NNK2; higher = more nucleation; inactive = no reads after selection
Outline: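 In psi-negative yeast, Sup35N fusions carrying peptides of 20 random codons were induced with 100 μM copper sulfate for 24 hours. The cells then grew 7 days at 30°C on medium lacking adenine and uracil, and plasmid inserts from input and output were Illumina-sequenced, excluding sequences with under 100 input reads. Nucleation score is the DiMSum log enrichment of output over input reads, centred on the mode score of non-aggregating sequences.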

Row | Substance | amyloid nucleation score
1 | HTGLFWS | inactive
2 | HTSVLNMTGSGLIPN | -1.82 ± 0.78
3 | HTTDFIVLMVRSDASIRLWS | 4.1 ± 0.077
4 | HVEHGNCFQ | inactive
5 | HVTWKNMIIDYLVP | 0.615 ± 0.6
6 | HVVVDSSVVAGCFTVFCRGI | 8.265 ± 0.046
7 | HWMVGKV | 0.164 ± 0.28
8 | HWVCKIILRGHSSMYCSDGC | 3.35 ± 0.11
9 | HWWLVIAMNRLGCFGEFMMR | -0.547 ± 0.63
10 | HWYVVDLVRVNYRALNSKWW | 0.194 ± 0.56
11 | HYMRFYCCSYNANKTVSYVP | 8.72 ± 0.028
12 | HYSGGCSLPSVKERVGTSIG | -0.604 ± 0.76
13 | HYVIVNIICCSDVGVLSRDR | 9.454 ± 0.069
14 | IALQDSDFSLLWFMHVCWDE | -0.463 ± 0.74
15 | IANKCVS | -1.12 ± 0.55
16 | IANRGNAKHVRWICMMHHRS | 0.479 ± 0.41
17 | IANWSKYSASTCLVMTHAMA | -0.302 ± 0.28
18 | IARDYVQ | -0.918 ± 0.54
19 | IASRLTPHSLYFLINVGRGR | 2.88 ± 0.14
20 | IATYIR | -0.179 ± 0.63
21 | IAVERS | -0.464 ± 1.1
22 | ICCRRSMPMIINDLNFMSNS | 7.928 ± 0.035

Row | Substance | amyloid nucleation score
23 | ICETGMGSKVGHEPVTAQ | 0.598 ± 0.57
24 | ICFTCQYFNKYPGRS | 4.31 ± 0.09
25 | ICGCCARIHNYNISVSACLT | 4.3 ± 0.052
26 | ICGGTSESGRYRKAGQGV | 1.07 ± 0.15
27 | ICIDRNRI | 0.396 ± 0.34
28 | ICKGVRKIWSFGDMSWCRES | inactive
29 | ICKRVVVLWHSKEPDALFVG | inactive
30 | ICPFKSWFFYSLPYAFVRFT | inactive
31 | ICQWRSWLKSTVIFCTRYDF | 3.37 ± 0.13
32 | ICWHV | -0.277 ± 1.1
33 | ICWRHTGIICKAGSNRSH | inactive
34 | IDFRISLCVRFFGCFLLDYY | -0.618 ± 0.76
35 | IDSDSFHDRSTSRHLFNGLA | inactive
36 | IDSILICIMHDCIYIEYLRN | 4.44 ± 0.094
37 | IDVGYIYGMVCWQTG | 4.08 ± 0.083
38 | IDVSKCVLGKDSSLRGTNTR | -0.595 ± 0.28
39 | IDYHD | -1.45 ± 0.78
40 | IEFWDYKYVLVSSFVFKHDV | -0.069 ± 0.65
41 | IEGDLFVRLRLRKLSQLFKA | 0.196 ± 0.77
42 | IESPLIEFTIDCW | -0.025 ± 0.79
43 | IESSGWAGRGTYSTYLASNV | 1.2 ± 0.66
44 | IFAGIHWNGQSAFLVFKCHI | inactive

Row | Substance | amyloid nucleation score
45 | IFASRSGFLSIRQLSHPARR | 3.35 ± 0.078
46 | IFCYPQCVGPRSLCVGGNME | -0.72 ± 0.39
47 | IFFLSNLKRKPDDRGLVHKN | 2.57 ± 0.14
48 | IFGFGL | 2.85 ± 0.2
49 | IFIRLFVLANYCINLFSS | 3.28 ± 0.082
50 | IFLQNTSSEWLLSARDRLRY | 0.157 ± 1
51 | IFNRSASYLAFFHKG | 4.3 ± 0.079
52 | IFPGILH | -1.83 ± 0.63
53 | IFRFARSNTYFRGESME | 4.08 ± 0.095
54 | IFYHHLSWTEFRCGRTFLSV | 0.196 ± 0.42
55 | IGIDLVRSGSVIFPSPTWKV | 4.411 ± 0.037
56 | IGINLCCGDYFIHVLSASCS | 5.2 ± 0.058
57 | IGKRASSPYYRPSIVVYSWD | -0.302 ± 0.32
58 | IGLNTYTMF | 0.282 ± 0.49
59 | IGQRLCYCVCWRSSCGVVWQ | 1.46 ± 0.36
60 | IHLIREVAQRFTSCA | 0.7 ± 0.28
61 | IHPRSFRNVCLSSHSEMGG | -0.813 ± 0.76
62 | IIALLYIKMTSTLVTVRKSL | 0.297 ± 0.5
63 | IIFVVVASQKVHWFVRVDGD | -0.658 ± 1
64 | IIGINVWM | 5.443 ± 0.05
65 | IIHAFHMSGPLLRAQVS | -0.308 ± 0.38
66 | IIMPF | -0.682 ± 0.64

Row | Substance | amyloid nucleation score
67 | IIRRF | 0.28 ± 0.33
68 | IISGAFRCARNGY | 1.62 ± 0.3
69 | IITLSYGGCSVGPCGQ | 7.371 ± 0.057
70 | IIVSDSPTLQRS | 0.163 ± 0.63
71 | IKHKLWRAYYCSESTLSVLS | -1.03 ± 0.28
72 | IKILLCRSGARIGVSCDMSC | 0.706 ± 0.74
73 | IKKGRWAYGPSLVCKNAMRE | 0.799 ± 0.74
74 | IKSIT | -0.388 ± 1
75 | IKVAEGSLVCARYGRMVRLE | 4.92 ± 0.053
76 | IKWRSFPDSYLENFEFI | -1.6 ± 1.1
77 | IKYLKCIVMCRFFVHWSSIV | -1.06 ± 0.76
78 | ILAVRQV | 0.054 ± 0.79
79 | ILAYPFRCIETNSLLKMSPL | 0.402 ± 0.8
80 | ILEACREAARPAITFSFFTK | -1.04 ± 1.1
81 | ILFGFSLPGSCDNWDRDAKG | -1.15 ± 0.78
82 | ILFGIPN | -0.314 ± 0.24
83 | ILFIIWGHLRYVRIVSYVGY | -1.48 ± 0.62
84 | ILGDNRLKPVTLSRNVALYY | -1.18 ± 0.78
85 | ILGQAGMILFNKLAPRGALR | inactive
